Target: T1, recombinant TNFRSF9 protein (Homo sapiens (Human), UniProt Q07011 24-186)
T1 construct: also called 4-1BB; antigen
Test: indirect ELISA, plate coated with 0.5 ug/ml recombinant TNFRSF9 protein, antibody titrated 3-fold from 1 ug/ml
Protocol: The antibody affinity detection method was an enzyme-linked immunosorbent assay (ELISA) based on an indirect method. Indirect ELISA was used for evaluating the ability of the purified antibody to bind the antigen TNFRSF9 protein. The specific steps were as follows: the ELISA plate was coated with 0.5 μg/ml recombinant TNFRSF9 protein in PBS at 100 μl/well at 4° C. overnight. The plate was washed with PBS-T (0.05% Tween) and blocked with 250 μl/well of PBST containing 1% BSA at 37° C. for 2 hours. Subsequently, the blocking solution was discarded, and 100 μl of the 1 μg/ml purified antibody was added to the first well and 3-fold diluted in a gradient to prepare a total of 11 serial test concentrations, and additionally a blank well was prepared. The plate was then incubated at 37° C. for 1 hour. […] The plate was washed four times with PBST, a TMB color development solution (GenScript) was then added, and the plate was incubated in the dark at 25° C. for 15 minutes. […] The plate was read at 450 nm using a microplate reader.

- EC50: 2.6 ng/mL
B1: 81E11WTH (antibody, V domains shown)
VH: QSVKESEGGLFKPTDTLTLACTVSGFSLSYNAITWVRQAPGNGLEWIGVINYDGTTVYASWAKSRSTITRNTNLNTVTLKMTSLTAADTATYFCARNFNIWGPGTLVTVSS
VL: AAVLTQTPSPVSVTVGGTVTINCQASQSVDNNNYLAWFQQKPGQPPKQLIYSASTLASGVSSRFKGSGSGTQFTLTISGVQCDDAATYYCLGEFSASSGDWNAFGGGTEVVVK
notes: also called control 81E11WTH

Source: patent publication US20260148804A1 (NANJING GENSCRIPT BIOTECH, published 2026)
